test system: c-Abl (mouse); test: phosphorylation enrichment, bacterial display (enrichment ratio); higher = better substrate or ligand; peptides without Tyr show the background
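Also: 11-residue human phosphosite peptides and single-mutation variants displayed on the E. coli surface, counted by deep sequencing, each peptide's frequency after selection divided by its frequency in the unselected input library; frequency after pTyr selection over input frequency; kinase dosed for 20-30% of maximal phosphorylation in three min.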

Sequence | phosphorylation enrichment
ADGLEYPRTGL [MMUT_Y287_S288P] | 0.528
SGTYQYIIAKF [FOXL2_Y83_I80T] | 1.17
SVVVPYQPPEV [TP53_Y220_E221Q] | 1.51
TVDASYYGGRG [ANTXR2_Y380] | 0.576
DEEEEYEYMNR [ERBB3_Y1197_D1194E] | 0.631
TGILLHGLASR [QARS1_Y57_Y57H] | 0.528
RFMELYDLNRD [BBS2_Y648_YF] | 0.556
EACPSYSHVVL [CHST6_Y168_R166P] | 0.54
GRRGQYVMLSE [TTC7A_Y396] | 0.565
WAFNLYDINKF [KCNIP3_Y174_D179Y_YF] | 0.662
KGPGEYVNIEF [IRS1_Y896_S892G] | 0.493
QEIATYRRQLE [KRT14_Y415_L418Q] | 0.773
HEPKGYNANFC [TGFB2_Y341] | 0.847
YYLGKYLQEVL [KLB_Y910] | 0.902
DFTSRYLNASD [PKHD1_Y828] | 0.512
SHEELYKWFTS [DYNC1H1_Y3051] | 1.33
LRTAVHHEILI [CREBBP_Y1450_Y1450H] | 1.94

Sequence | phosphorylation enrichment
RAMPVYKKAEH [TP63_Y231] | 0.301
CNLDTYQKRLR [PLA2G2D_Y126_R121C] | 0.592
HNVPIYEGFAL [ACTA1_Y168_YF] | 23.5
LKALHYMAQTS [SACS_Y3367_V3369A] | 0.907
LLREWYLQDPY [SIX3_Y225] | 1.11
YRTPGYREVVI [TNS2_Y673_A670T] | 1.23
CTTIFYNFMCN [TP53_Y234_H233Y_YF] | 0.597
VGTTAYMAPEA [IRAK4_Y354] | 0.537
HEKKAYSFCGT [RPS6KA3_Y226] | 0.725
TLRKTYGEMAD [ALB_Y108_E106K] | 0.462
GISDEYHMIRH [GCDH_Y398_V400M] | 0.491
QMQNPYSSHSS [MUC13_Y501_R503S] | 0.446
QYQEKYKQMEQ [HCN4_Y531_V534M] | 0.584
VDGFVYKLHPS [GCK_Y413_S411F] | 0.562
KLQKKYGPIFS [CYP17A1_Y60_YF] | 0.505
RLNCIYFKDQT [RS1_Y165_W163C_YF] | 1.05

biological target: Fes (UniProt P07332); test: as above
Sequence (P07332 whole entry, looked up): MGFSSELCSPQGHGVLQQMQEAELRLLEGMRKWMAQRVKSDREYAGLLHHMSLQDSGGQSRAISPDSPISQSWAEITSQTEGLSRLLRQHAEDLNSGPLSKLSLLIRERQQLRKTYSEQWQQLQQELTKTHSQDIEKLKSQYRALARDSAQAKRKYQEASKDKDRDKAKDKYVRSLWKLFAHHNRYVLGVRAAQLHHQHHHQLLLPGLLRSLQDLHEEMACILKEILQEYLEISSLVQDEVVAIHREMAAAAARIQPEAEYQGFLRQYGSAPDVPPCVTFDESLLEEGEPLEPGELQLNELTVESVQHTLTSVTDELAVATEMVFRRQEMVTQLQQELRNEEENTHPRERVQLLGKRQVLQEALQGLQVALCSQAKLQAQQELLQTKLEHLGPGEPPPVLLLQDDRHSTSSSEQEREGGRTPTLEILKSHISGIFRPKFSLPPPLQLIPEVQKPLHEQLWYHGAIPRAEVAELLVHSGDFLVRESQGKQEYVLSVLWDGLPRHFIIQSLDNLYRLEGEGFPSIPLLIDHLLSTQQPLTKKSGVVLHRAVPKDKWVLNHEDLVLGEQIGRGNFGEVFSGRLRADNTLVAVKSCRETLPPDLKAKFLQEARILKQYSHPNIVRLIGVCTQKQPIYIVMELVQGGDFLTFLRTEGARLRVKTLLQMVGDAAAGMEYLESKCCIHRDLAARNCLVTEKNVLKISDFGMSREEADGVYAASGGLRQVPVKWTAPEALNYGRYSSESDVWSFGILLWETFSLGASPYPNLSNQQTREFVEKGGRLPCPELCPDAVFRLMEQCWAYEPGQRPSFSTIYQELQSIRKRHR

Sequence | phosphorylation enrichment
ADGLEYPRTGL [MMUT_Y287_S288P] | 0.835
SGTYQYIIAKF [FOXL2_Y83_I80T] | 1.51
SVVVPYQPPEV [TP53_Y220_E221Q] | 0.918
TVDASYYGGRG [ANTXR2_Y380] | 0.66
DEEEEYEYMNR [ERBB3_Y1197_D1194E] | 1.17
TGILLHGLASR [QARS1_Y57_Y57H] | 0.629
RFMELYDLNRD [BBS2_Y648_YF] | 1.28
EACPSYSHVVL [CHST6_Y168_R166P] | 0.702
GRRGQYVMLSE [TTC7A_Y396] | 0.586
WAFNLYDINKF [KCNIP3_Y174_D179Y_YF] | 1.26
KGPGEYVNIEF [IRS1_Y896_S892G] | 0.79
QEIATYRRQLE [KRT14_Y415_L418Q] | 1.01
HEPKGYNANFC [TGFB2_Y341] | 0.92
YYLGKYLQEVL [KLB_Y910] | 1.34
DFTSRYLNASD [PKHD1_Y828] | 0.893
SHEELYKWFTS [DYNC1H1_Y3051] | 1.21
LRTAVHHEILI [CREBBP_Y1450_Y1450H] | 1.39

Sequence | phosphorylation enrichment
RAMPVYKKAEH [TP63_Y231] | 0.379
CNLDTYQKRLR [PLA2G2D_Y126_R121C] | 0.624
HNVPIYEGFAL [ACTA1_Y168_YF] | 7.74
LKALHYMAQTS [SACS_Y3367_V3369A] | 0.94
LLREWYLQDPY [SIX3_Y225] | 1.52
YRTPGYREVVI [TNS2_Y673_A670T] | 0.721
CTTIFYNFMCN [TP53_Y234_H233Y_YF] | 1.42
VGTTAYMAPEA [IRAK4_Y354] | 0.893
HEKKAYSFCGT [RPS6KA3_Y226] | 1.8
TLRKTYGEMAD [ALB_Y108_E106K] | 0.709
GISDEYHMIRH [GCDH_Y398_V400M] | 0.714
QMQNPYSSHSS [MUC13_Y501_R503S] | 0.659
QYQEKYKQMEQ [HCN4_Y531_V534M] | 1.23
VDGFVYKLHPS [GCK_Y413_S411F] | 0.962
KLQKKYGPIFS [CYP17A1_Y60_YF] | 0.503
RLNCIYFKDQT [RS1_Y165_W163C_YF] | 1.32

biological target: MERTK (UniProt Q12866); test: as above
Sequence (Q12866 whole entry, looked up): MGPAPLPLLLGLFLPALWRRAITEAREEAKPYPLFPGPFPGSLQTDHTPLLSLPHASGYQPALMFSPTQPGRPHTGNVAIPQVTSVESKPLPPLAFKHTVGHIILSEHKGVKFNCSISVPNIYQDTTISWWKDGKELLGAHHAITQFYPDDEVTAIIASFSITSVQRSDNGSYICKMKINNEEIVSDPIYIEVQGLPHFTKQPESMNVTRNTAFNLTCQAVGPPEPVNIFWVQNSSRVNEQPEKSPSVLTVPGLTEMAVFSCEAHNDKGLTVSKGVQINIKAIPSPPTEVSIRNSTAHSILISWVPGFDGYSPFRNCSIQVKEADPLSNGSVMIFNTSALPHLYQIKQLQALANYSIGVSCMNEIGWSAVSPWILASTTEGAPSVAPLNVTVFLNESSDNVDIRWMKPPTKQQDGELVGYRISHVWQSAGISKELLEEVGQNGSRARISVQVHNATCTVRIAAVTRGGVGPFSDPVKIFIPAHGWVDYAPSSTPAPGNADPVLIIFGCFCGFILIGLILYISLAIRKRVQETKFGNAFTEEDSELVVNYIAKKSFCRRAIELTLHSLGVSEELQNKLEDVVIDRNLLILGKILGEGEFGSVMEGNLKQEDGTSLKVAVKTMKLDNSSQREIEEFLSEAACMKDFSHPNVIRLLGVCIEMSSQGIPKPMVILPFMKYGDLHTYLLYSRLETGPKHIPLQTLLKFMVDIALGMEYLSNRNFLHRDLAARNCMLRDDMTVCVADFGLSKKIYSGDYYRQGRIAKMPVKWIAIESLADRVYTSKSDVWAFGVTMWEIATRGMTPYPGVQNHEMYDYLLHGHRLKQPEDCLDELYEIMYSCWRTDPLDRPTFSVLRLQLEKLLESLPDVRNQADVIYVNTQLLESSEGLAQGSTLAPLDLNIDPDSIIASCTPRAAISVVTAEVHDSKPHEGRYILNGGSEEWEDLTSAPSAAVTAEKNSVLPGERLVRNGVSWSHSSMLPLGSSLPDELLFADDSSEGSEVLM

Sequence | phosphorylation enrichment
ADGLEYPRTGL [MMUT_Y287_S288P] | 0.319
SGTYQYIIAKF [FOXL2_Y83_I80T] | 5.26
SVVVPYQPPEV [TP53_Y220_E221Q] | 0.383
TVDASYYGGRG [ANTXR2_Y380] | 0.495
DEEEEYEYMNR [ERBB3_Y1197_D1194E] | 0.404
TGILLHGLASR [QARS1_Y57_Y57H] | 0.419
RFMELYDLNRD [BBS2_Y648_YF] | 0.459
EACPSYSHVVL [CHST6_Y168_R166P] | 0.486
GRRGQYVMLSE [TTC7A_Y396] | 0.673
WAFNLYDINKF [KCNIP3_Y174_D179Y_YF] | 3.37
KGPGEYVNIEF [IRS1_Y896_S892G] | 0.442
QEIATYRRQLE [KRT14_Y415_L418Q] | 0.445
HEPKGYNANFC [TGFB2_Y341] | 0.559
YYLGKYLQEVL [KLB_Y910] | 1.42
DFTSRYLNASD [PKHD1_Y828] | 0.511
SHEELYKWFTS [DYNC1H1_Y3051] | 4.28
LRTAVHHEILI [CREBBP_Y1450_Y1450H] | 0.535

Sequence | phosphorylation enrichment
RAMPVYKKAEH [TP63_Y231] | 0.292
CNLDTYQKRLR [PLA2G2D_Y126_R121C] | 0.434
HNVPIYEGFAL [ACTA1_Y168_YF] | 12.4
LKALHYMAQTS [SACS_Y3367_V3369A] | 0.749
LLREWYLQDPY [SIX3_Y225] | 0.606
YRTPGYREVVI [TNS2_Y673_A670T] | 0.472
CTTIFYNFMCN [TP53_Y234_H233Y_YF] | 1.93
VGTTAYMAPEA [IRAK4_Y354] | 0.354
HEKKAYSFCGT [RPS6KA3_Y226] | 0.725
TLRKTYGEMAD [ALB_Y108_E106K] | 0.381
GISDEYHMIRH [GCDH_Y398_V400M] | 0.349
QMQNPYSSHSS [MUC13_Y501_R503S] | 0.432
QYQEKYKQMEQ [HCN4_Y531_V534M] | 0.287
VDGFVYKLHPS [GCK_Y413_S411F] | 0.288
KLQKKYGPIFS [CYP17A1_Y60_YF] | 0.39
RLNCIYFKDQT [RS1_Y165_W163C_YF] | 0.871

biological target: Jak2 (UniProt O60674); test: as above
Sequence (O60674 whole entry, looked up): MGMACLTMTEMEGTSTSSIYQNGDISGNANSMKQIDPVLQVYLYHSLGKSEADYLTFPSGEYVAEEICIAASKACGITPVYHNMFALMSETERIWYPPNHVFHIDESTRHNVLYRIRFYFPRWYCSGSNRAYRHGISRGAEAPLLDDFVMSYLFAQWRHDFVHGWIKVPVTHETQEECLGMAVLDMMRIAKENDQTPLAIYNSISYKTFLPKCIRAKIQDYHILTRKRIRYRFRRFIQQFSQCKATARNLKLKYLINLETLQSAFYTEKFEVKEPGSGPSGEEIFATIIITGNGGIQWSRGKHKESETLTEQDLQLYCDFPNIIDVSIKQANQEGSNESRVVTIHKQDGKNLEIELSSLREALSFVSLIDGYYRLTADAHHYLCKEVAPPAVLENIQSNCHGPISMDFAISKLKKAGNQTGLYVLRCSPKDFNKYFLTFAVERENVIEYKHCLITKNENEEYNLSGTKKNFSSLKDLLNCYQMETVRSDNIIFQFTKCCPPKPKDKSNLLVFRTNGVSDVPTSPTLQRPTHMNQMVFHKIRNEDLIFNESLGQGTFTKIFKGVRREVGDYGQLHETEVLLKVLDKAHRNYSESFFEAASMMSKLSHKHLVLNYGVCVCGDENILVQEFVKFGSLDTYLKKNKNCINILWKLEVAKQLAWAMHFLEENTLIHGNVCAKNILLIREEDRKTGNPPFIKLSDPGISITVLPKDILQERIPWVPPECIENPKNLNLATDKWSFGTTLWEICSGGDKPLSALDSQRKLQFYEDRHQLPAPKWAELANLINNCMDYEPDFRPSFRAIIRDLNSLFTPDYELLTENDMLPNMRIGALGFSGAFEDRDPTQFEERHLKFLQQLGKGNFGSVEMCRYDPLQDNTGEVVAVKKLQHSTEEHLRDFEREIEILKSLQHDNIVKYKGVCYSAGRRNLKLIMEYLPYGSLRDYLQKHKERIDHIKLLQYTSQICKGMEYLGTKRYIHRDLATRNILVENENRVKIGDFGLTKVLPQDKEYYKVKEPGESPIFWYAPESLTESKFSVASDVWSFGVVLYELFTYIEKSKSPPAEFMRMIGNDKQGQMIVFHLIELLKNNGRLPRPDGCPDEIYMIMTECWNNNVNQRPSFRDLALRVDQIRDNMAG

Sequence | phosphorylation enrichment
ADGLEYPRTGL [MMUT_Y287_S288P] | 0.495
SGTYQYIIAKF [FOXL2_Y83_I80T] | 1.29
SVVVPYQPPEV [TP53_Y220_E221Q] | 0.784
TVDASYYGGRG [ANTXR2_Y380] | 0.609
DEEEEYEYMNR [ERBB3_Y1197_D1194E] | 1
TGILLHGLASR [QARS1_Y57_Y57H] | 0.488
RFMELYDLNRD [BBS2_Y648_YF] | 0.909
EACPSYSHVVL [CHST6_Y168_R166P] | 0.527
GRRGQYVMLSE [TTC7A_Y396] | 0.573
WAFNLYDINKF [KCNIP3_Y174_D179Y_YF] | 0.933
KGPGEYVNIEF [IRS1_Y896_S892G] | 0.691
QEIATYRRQLE [KRT14_Y415_L418Q] | 0.976
HEPKGYNANFC [TGFB2_Y341] | 0.737
YYLGKYLQEVL [KLB_Y910] | 1.3
DFTSRYLNASD [PKHD1_Y828] | 0.616
SHEELYKWFTS [DYNC1H1_Y3051] | 1.05
LRTAVHHEILI [CREBBP_Y1450_Y1450H] | 1.32

Sequence | phosphorylation enrichment
RAMPVYKKAEH [TP63_Y231] | 0.306
CNLDTYQKRLR [PLA2G2D_Y126_R121C] | 0.563
HNVPIYEGFAL [ACTA1_Y168_YF] | 0.894
LKALHYMAQTS [SACS_Y3367_V3369A] | 0.751
LLREWYLQDPY [SIX3_Y225] | 1.11
YRTPGYREVVI [TNS2_Y673_A670T] | 0.587
CTTIFYNFMCN [TP53_Y234_H233Y_YF] | 1.28
VGTTAYMAPEA [IRAK4_Y354] | 0.689
HEKKAYSFCGT [RPS6KA3_Y226] | 0.695
TLRKTYGEMAD [ALB_Y108_E106K] | 0.752
GISDEYHMIRH [GCDH_Y398_V400M] | 0.575
QMQNPYSSHSS [MUC13_Y501_R503S] | 0.467
QYQEKYKQMEQ [HCN4_Y531_V534M] | 0.684
VDGFVYKLHPS [GCK_Y413_S411F] | 0.999
KLQKKYGPIFS [CYP17A1_Y60_YF] | 0.583
RLNCIYFKDQT [RS1_Y165_W163C_YF] | 1.3

Reference: the supplement of paper PMC10065799, “High-throughput profiling of sequence recognition by tyrosine kinases and SH2 domains using bacterial peptide display” (eLife, 2023)
